Assay results reported in PMC3542137, “Mycobacterium tuberculosis RecG binds and unwinds model DNA substrates with a preference for Holliday junctions”.

What was measured:
[1] = molecular target: T1, RecGMtb (Mycobacterium tuberculosis H37Rv, UniProt P9WMQ7 1-737); assay: EMSA; 5 mM EDTA, poly(dI-dC); conditions: protein: recombinant, tags: N-terminal His6 cleaved off with thrombin (pET28b), label: 32P 5' end
T1 sequence: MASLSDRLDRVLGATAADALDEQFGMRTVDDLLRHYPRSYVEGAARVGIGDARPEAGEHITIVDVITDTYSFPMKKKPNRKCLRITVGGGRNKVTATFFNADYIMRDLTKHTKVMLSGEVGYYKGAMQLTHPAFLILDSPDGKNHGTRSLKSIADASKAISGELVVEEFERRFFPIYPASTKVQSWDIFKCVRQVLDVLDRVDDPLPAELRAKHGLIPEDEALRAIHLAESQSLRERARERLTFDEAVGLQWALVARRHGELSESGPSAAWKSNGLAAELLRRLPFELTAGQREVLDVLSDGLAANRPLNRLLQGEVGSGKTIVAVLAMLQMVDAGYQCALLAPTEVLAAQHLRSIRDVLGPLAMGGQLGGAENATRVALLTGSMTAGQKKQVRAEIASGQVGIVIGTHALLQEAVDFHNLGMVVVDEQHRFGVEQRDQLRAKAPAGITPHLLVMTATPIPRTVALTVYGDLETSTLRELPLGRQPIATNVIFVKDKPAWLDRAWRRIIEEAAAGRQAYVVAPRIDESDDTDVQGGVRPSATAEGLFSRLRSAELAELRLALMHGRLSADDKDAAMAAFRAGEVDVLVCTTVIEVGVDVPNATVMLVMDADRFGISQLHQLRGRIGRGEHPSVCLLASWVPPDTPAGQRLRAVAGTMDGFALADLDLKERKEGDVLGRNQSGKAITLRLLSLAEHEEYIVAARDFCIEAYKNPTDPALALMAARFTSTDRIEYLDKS

[2] = molecular target: T1, RecGMtb; assay: EMSA; no poly(dI-dC); 1 uM RecG; conditions: protein: recombinant; tags: N-terminal His6 cleaved off with thrombin (pET28b); label: 32P 5' end
[3] = molecular target: T1, RecGMtb; assay: EMSA; 5 mM EDTA, poly(dI-dC); 2 uM RecG; conditions: protein: recombinant; tags: N-terminal His6 cleaved off with thrombin (pET28b); label: 32P 5' end; bubble 1:2

B1: Holliday junction (substrate H) (structured_DNA)
DNA 1: GACGCTGCCGAATTCTGGCTTGCTAGGACATCTTTGCCCACGTTGACCC
DNA 2: TGGGTCAACGTGGGCAAAGATGTCCTAGCAATGTAATCGTCTATGACGTT
DNA 3: CAACGTCATAGACGATTACATTGCTAGGACATGCTGTCTAGAGACTATCGA
DNA 4: ATCGATAGTCTCTAGACAGCATGTCCTAGCAAGCCAGAATTCGGCAGCGT
binding result [1]: binds

TTTTTTTTTTTTTTTTTTTTTTTTTTTTTTTTTTTTTTTT (ssDNA) [poly(dT) 40 nt]
binding result [2]: binds

B2: 5'-tailed duplex (oligos 3+2) (dsDNA)
DNA 1: TTTTTTTTTTTTTTTTTTTTCGTGACATGCCGTGACTAGC
DNA 2: GCTAGTCACGGCATGTCACG
binding result ([1]; 5' overhang 20 nt (T20)): no binding

B3: lagging strand replication fork (substrate E) (structured_DNA)
DNA 1: GTCGGATCCTCTAGACAGCTCCATGATCACTGGCACTGGTAGAATTCGGC
DNA 2: CAACGTCATAGACGATTACATTGCTACATGGAGCTGTCTAGAGGATCCGA
DNA 3: TAGCAATGTAATCGTCTATGACGTT
binding result ([1]; fork 1:2 2:3): binds

B4: bubble (substrate I) (structured_DNA)
DNA 1: GGGTGAACCTGCAGGTGGGCGGCTGCTCATCGTAGGTTAGTTGGTAGAATTCGGCAGCGTC
DNA 2: GACGCTGCCGAATTCTACCAGTGCCTTGCTAGGACATCTTTGCCCACCTGCAGGTTCACCC
binding result [3]: binds

B5: 3'-tailed duplex (oligos 1+2) (dsDNA)
DNA 1: CGTGACATGCCGTGACTAGCTTTTTTTTTTTTTTTTTTTT
DNA 2: GCTAGTCACGGCATGTCACG
binding result ([1]; 3' overhang 20 nt (T20)): no binding
